Reference: patent US20230002480A1

Columns and labels:
Experiment in all cases: cell-based or functional assay
[1] = biological target: HIV-1 Env of pseudovirus 9004SS_A3_4 (HIV-1)
[2] = biological target: HIV-1 Env of pseudovirus SC422661.8 (HIV-1)
[3] = biological target: HIV-1 Env of pseudovirus 6480.v4.c25 (HIV-1)
[4] = biological target: HIV-1 Env of pseudovirus Ce0682_E4 (HIV-1)
[5] = biological target: HIV-1 Env of pseudovirus T251-18 (HIV-1)
[6] = biological target: HIV-1 Env of pseudovirus CNE58 (HIV-1)
[7] = biological target: HIV-1 Env of pseudovirus CAP210.2.00.E8 (HIV-1)
[8] = biological target: HIV-1 Env of pseudovirus WITO4160.33 (HIV-1)
[9] = biological target: HIV-1 Env of pseudovirus Ce1086_B2 (HIV-1)
[10] = biological target: HIV-1 Env of pseudovirus 3301.v1.c24 (HIV-1)
[11] = biological target: HIV-1 Env of pseudovirus Q769.d22 (HIV-1)
[12] = biological target: HIV-1 Env of pseudovirus 6952.v1.c20 (HIV-1)
[13] = biological target: HIV-1 Env of pseudovirus C3347.c11 (HIV-1)
[14] = biological target: HIV-1 Env of pseudovirus 249M B10 (HIV-1)
[15] = biological target: HIV-1 Env of pseudovirus HIV-16055-2.3 (HIV-1)
[16] = biological target: HIV-1 Env of pseudovirus ZM53M.PB12 (HIV-1)
[17] = biological target: HIV-1 Env of pseudovirus Ce2010_F5 (HIV-1)
[18] = biological target: HIV-1 Env of pseudovirus 6545.v4.c1 (HIV-1)
[19] = biological target: HIV-1 Env of pseudovirus Ce0393_C3 (HIV-1)
[20] = biological target: HIV-1 Env of pseudovirus ZM109F.PB4 (HIV-1)
[21] = biological target: HIV-1 Env of pseudovirus C2101.c01 (HIV-1)
[22] = biological target: HIV-1 Env of pseudovirus ZM197M.PB7 (HIV-1)
[23] = biological target: HIV-1 Env of pseudovirus 6811.v7.c18 (HIV-1)
[24] = biological target: HIV-1 Env of pseudovirus 231965.c01 (HIV-1)
[25] = biological target: HIV-1 Env of pseudovirus X2131_C1_B5 (HIV-1)
[26] = biological target: HIV-1 Env of pseudovirus TRJO4551.58 (HIV-1)
[27] = biological target: HIV-1 Env of pseudovirus BF1266.431a (HIV-1)
[28] = biological target: HIV-1 Env of pseudovirus P1981_C5_3 (HIV-1)
[29] = biological target: HIV-1 Env of pseudovirus R2184.c04 (HIV-1)
[30] = biological target: HIV-1 Env of pseudovirus 62357_14_D3_4589 (HIV-1)
[31] = biological target: HIV-1 Env of pseudovirus BJOX025000.01.1 (HIV-1)
[32] = biological target: HIV-1 Env of pseudovirus 1056_10_TA11_1826 (HIV-1)
[33] = biological target: HIV-1 Env of pseudovirus ZM249M.PL1 (HIV-1)
[34] = biological target: HIV-1 Env of pseudovirus C1080.c03 (HIV-1)
[35] = biological target: HIV-1 Env of pseudovirus CNE19 (HIV-1)
[36] = biological target: HIV-1 Env of pseudovirus BJOX015000.11.5 (HIV-1)

Substance: PGDM1400 (antibody)
- IC50 [1]: < 0.001 µg/mL
- IC80 [1]: 0.002 µg/mL
- IC50 [2]: 0.436 µg/mL
- IC80 [2]: 6.53 µg/mL
- IC50, titer in TZM.bl cells [3]: > 50 µg/mL
- IC80, titer in TZM.bl cells [3]: > 50 µg/mL
- IC50 [4]: 0.01 µg/mL
- IC80 [4]: 0.043 µg/mL
- IC50, titer in TZM.bl cells [5]: 8.62 µg/mL
- IC80, titer in TZM.bl cells [5]: 43.1 µg/mL
- IC50 [6]: 0.004 µg/mL
- IC80 [6]: 0.014 µg/mL
- IC50 [7]: 0.034 µg/mL
- IC80 [7]: 0.514 µg/mL
- IC50 [8]: < 0.001 µg/mL
- IC80 [8]: 0.008 µg/mL
- IC50 [9]: > 50 µg/mL
- IC80 [9]: > 50 µg/mL
- IC50, titer in TZM.bl cells [10]: 0.048 µg/mL
- IC80, titer in TZM.bl cells [10]: 0.245 µg/mL
- IC50 [11]: 0.002 µg/mL
- IC80 [11]: 0.018 µg/mL
- IC50, titer in TZM.bl cells [12]: 0.501 µg/mL
- IC80, titer in TZM.bl cells [12]: 11.8 µg/mL
- IC50, titer in TZM.bl cells [13]: 0.011 µg/mL
- IC80, titer in TZM.bl cells [13]: 0.051 µg/mL
- IC50 [14]: 0.039 µg/mL
- IC80 [14]: 0.786 µg/mL
- IC50 [15]: < 0.001 µg/mL
- IC80 [15]: 0.003 µg/mL
- IC50 [16]: 0.002 µg/mL
- IC80 [16]: 0.011 µg/mL
- IC50 [17]: > 50 µg/mL
- IC80 [17]: > 50 µg/mL
- IC50, titer in TZM.bl cells [18]: 0.003 µg/mL
- IC80, titer in TZM.bl cells [18]: 0.039 µg/mL
- IC50 [19]: 0.015 µg/mL
- IC80 [19]: 0.044 µg/mL
- IC50 [20]: 0.057 µg/mL
- IC80 [20]: 0.382 µg/mL
- IC50, titer in TZM.bl cells [21]: 0.006 µg/mL
- IC80, titer in TZM.bl cells [21]: 0.021 µg/mL
- IC50 [22]: 0.063 µg/mL
- IC80 [22]: 0.285 µg/mL
- IC50, titer in TZM.bl cells [23]: > 50 µg/mL
- IC80, titer in TZM.bl cells [23]: > 50 µg/mL
- IC50, titer in TZM.bl cells [24]: 0.025 µg/mL
- IC80, titer in TZM.bl cells [24]: 1.28 µg/mL
- IC50, titer in TZM.bl cells [25]: 0.128 µg/mL
- IC80, titer in TZM.bl cells [25]: 0.568 µg/mL
- IC50 [26]: > 50 µg/mL
- IC80 [26]: > 50 µg/mL
- IC50 [27]: 0.003 µg/mL
- IC80 [27]: 0.011 µg/mL
- IC50, titer in TZM.bl cells [28]: 0.104 µg/mL
- IC80, titer in TZM.bl cells [28]: 4.6 µg/mL
- IC50, titer in TZM.bl cells [29]: 0.003 µg/mL
- IC80, titer in TZM.bl cells [29]: 0.012 µg/mL
- IC50 [30]: > 50 µg/mL
- IC80 [30]: > 50 µg/mL
- IC50, titer in TZM.bl cells [31]: 0.087 µg/mL
- IC80, titer in TZM.bl cells [31]: 0.573 µg/mL
- IC50 [32]: 3.26 µg/mL
- IC80 [32]: 11.8 µg/mL
- IC50 [33]: 0.016 µg/mL
- IC80 [33]: 0.701 µg/mL
- IC50, titer in TZM.bl cells [34]: < 0.001 µg/mL
- IC80, titer in TZM.bl cells [34]: < 0.001 µg/mL
- IC50 [35]: 0.001 µg/mL
- IC80 [35]: 0.007 µg/mL
- IC50, titer in TZM.bl cells [36]: 0.52 µg/mL
- IC80, titer in TZM.bl cells [36]: 10.6 µg/mL

Substance: PGT145 (antibody)
- IC50 [1]: 0.018 µg/mL
- IC80 [1]: 0.419 µg/mL
- IC50 [2]: 0.024 µg/mL
- IC80 [2]: 0.082 µg/mL
- IC50, titer in TZM.bl cells [3]: > 50 µg/mL
- IC80, titer in TZM.bl cells [3]: > 50 µg/mL
- IC50 [4]: 33.6 µg/mL
- IC80 [4]: > 50 µg/mL
- IC50, titer in TZM.bl cells [5]: 0.351 µg/mL
- IC80, titer in TZM.bl cells [5]: 1.39 µg/mL
- IC50 [6]: 0.183 µg/mL
- IC80 [6]: 7.41 µg/mL
- IC50 [7]: 37.8 µg/mL
- IC80 [7]: > 50 µg/mL
- IC50 [8]: < 0.001 µg/mL
- IC80 [8]: 0.001 µg/mL
- IC50 [9]: > 50 µg/mL
- IC80 [9]: > 50 µg/mL
- IC50, titer in TZM.bl cells [10]: 0.219 µg/mL
- IC80, titer in TZM.bl cells [10]: 4.22 µg/mL
- IC50 [11]: 0.26 µg/mL
- IC80 [11]: 25.5 µg/mL
- IC50, titer in TZM.bl cells [12]: 3.12 µg/mL
- IC80, titer in TZM.bl cells [12]: > 50 µg/mL
- IC50, titer in TZM.bl cells [13]: 0.005 µg/mL
- IC80, titer in TZM.bl cells [13]: 0.044 µg/mL
- IC50 [14]: 0.947 µg/mL
- IC80 [14]: 41.3 µg/mL
- IC50 [15]: 0.003 µg/mL
- IC80 [15]: 0.051 µg/mL
- IC50 [16]: 0.367 µg/mL
- IC80 [16]: 11.8 µg/mL
- IC50 [17]: > 50 µg/mL
- IC80 [17]: > 50 µg/mL
- IC50, titer in TZM.bl cells [18]: 0.114 µg/mL
- IC80, titer in TZM.bl cells [18]: 3.1 µg/mL
- IC50 [19]: 0.112 µg/mL
- IC80 [19]: 1.23 µg/mL
- IC50 [20]: 0.042 µg/mL
- IC80 [20]: 0.234 µg/mL
- IC50 [22]: 0.628 µg/mL
- IC80 [22]: 5.24 µg/mL
- IC50, titer in TZM.bl cells [23]: > 50 µg/mL
- IC80, titer in TZM.bl cells [23]: > 50 µg/mL
- IC50, titer in TZM.bl cells [24]: 0.403 µg/mL
- IC80, titer in TZM.bl cells [24]: 15 µg/mL
- IC50, titer in TZM.bl cells [25]: 0.018 µg/mL
- IC80, titer in TZM.bl cells [25]: 0.065 µg/mL
- IC50 [26]: > 50 µg/mL
- IC80 [26]: > 50 µg/mL
- IC50 [27]: 1.34 µg/mL
- IC80 [27]: 18.5 µg/mL
- IC50, titer in TZM.bl cells [28]: 5.41 µg/mL
- IC80, titer in TZM.bl cells [28]: > 50 µg/mL
- IC50, titer in TZM.bl cells [29]: 0.073 µg/mL
- IC80, titer in TZM.bl cells [29]: 0.376 µg/mL
- IC50 [30]: > 50 µg/mL
- IC80 [30]: > 50 µg/mL
- IC50, titer in TZM.bl cells [31]: 6.63 µg/mL
- IC80, titer in TZM.bl cells [31]: > 50 µg/mL
- IC50 [32]: 0.23 µg/mL
- IC80 [32]: 0.938 µg/mL
- IC50 [33]: 1.44 µg/mL
- IC80 [33]: > 50 µg/mL
- IC50, titer in TZM.bl cells [34]: 0.024 µg/mL
- IC80, titer in TZM.bl cells [34]: 0.146 µg/mL
- IC50 [35]: 0.103 µg/mL
- IC80 [35]: 1.13 µg/mL
- IC50, titer in TZM.bl cells [36]: > 50 µg/mL
- IC80, titer in TZM.bl cells [36]: > 50 µg/mL
